Test results reported in publication PMC6943233, “Disorder‐to‐order transition in PE–PPE proteins of Mycobacterium tuberculosis augments the pro‐pathogen immune response” (FEBS Open Bio, 2019).

Target: T1, PPE68 (Mycobacterium tuberculosis, UniProt P9WHW9 1-368)
T1 construct: also called recombinant PPE68
T1 sequence: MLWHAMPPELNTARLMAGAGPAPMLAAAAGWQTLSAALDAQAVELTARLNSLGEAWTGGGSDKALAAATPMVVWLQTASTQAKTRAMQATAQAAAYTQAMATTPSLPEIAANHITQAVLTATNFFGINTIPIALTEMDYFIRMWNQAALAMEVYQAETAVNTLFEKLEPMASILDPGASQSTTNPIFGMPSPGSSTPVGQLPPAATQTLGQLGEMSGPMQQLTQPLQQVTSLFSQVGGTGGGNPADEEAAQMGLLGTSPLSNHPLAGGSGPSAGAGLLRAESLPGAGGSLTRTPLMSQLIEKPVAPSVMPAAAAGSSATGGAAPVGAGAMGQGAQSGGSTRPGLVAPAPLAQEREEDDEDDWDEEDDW
Test: other fluorescence titration; intrinsic fluorescence of the PPE protein (10 μg) with the tryptophan-free PE protein added (10 and 30 μg); excitation 280 nm, emission 300-340 nm, 25 ± 0.1 °C
Conditions: both partners purified

B1: PE35 (natural protein)
chain: MEKMSHDPIAADIGTQVSDNALHGVTAGSTALTSVTGLVPAGADEVSAQAATAFTSEGIQLLASNASAQDQLHRAGEAVQDVARTYSQIDDGAAGVFAE
notes: also called recombinant PE35
binding result: binds
